In article PMC10249625 (Biochemistry, 2023):
Values belong to the binder of their own block, whether it stands above or below them.

What was measured:
[1] = target: hBIMEL (141–166) BH3 peptide (human); assay: HDX-MS
[2] = target: hBIMEL (141–166) BH3 peptide (human); assay: native MS

binding result [1]: binds
B1: Mcl-1 (172–327), untagged after thrombin cleavage of GST (domain or fragment, human (from the printed UniProt entry))
chain: GSGSDELYRQSLEIISRYLREQATGAKDTKPMGRSGATSRKALETLRRVGDGVQRNHETAFQGMLRKLDIKNEDDVKSLSRVMIHVFSDGVTNWGRIVTLISFGAFVAKHLKTINQESCIEPLAESITDVLVRTKRDWLVKQRGWDGFVEFFHVEDLEGG

binding result [2]: binds
B2: Bcl-2 chimera (1–34 Bcl-2, 35–50 Bcl-XL, 93–207 Bcl-2) with a C-terminal 6His tag (domain or fragment)
chain: MAHAGRTGYDNREIVMKYIHYKLSQRGYEWDAGDDVEENRTEAPEGTESEPVVHLTLRQAGDDFSRRYRRDFAEMSSQLHLTPFTARGRFATVVEELFRDGVNWGRIVAFFEFGGVMCVESVNREMSPLVDNIALWMTEYLNRHLHTWIQDNGGWDAFVELYGPSMR
